# Reference: the nanobody polyreactivity screen of Harvey et al. (2022)
# Assay: yeast display, Sf9 membrane polyspecificity reagent, FACS + sequencing; frameworks hold sequencing errors
# Summary of the method: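 In a synthetic yeast display library (Saccharomyces cerevisiae BJ5465), nanobody expression was induced with galactose for 36–48 hours. FACS gates were set low and high (top ~1%) using anti-HA fluorescence for expression and streptavidin fluorescence for binding of the Sf9 membrane reagent. Each polyreactivity label is drawn from the gate of origin.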
row,Sequence,polyreactivity (PSR sort gate)
1,QVQLVESGGGLVQAGGSLRLSCAASGSIFRINAMGWYITAPGKERELVAAISWSGGSTYYADSVKGRFTISRDNAKNTVYLQMNSLKPEDTAVYYCAAVVSKSSFDYWGQGTQVTVSS,low polyreactivity
2,QVQLVESGGGLVQAGGSLRLSCAASGSIFRINTMGWYLQAPGKERELVAAISFSGTRTYYADSVKGRFTISRDNAKNTVYLQMNSLKPEDTAVYYCAAAGRYTYRTLRDYWGQGTQVTVSS,high polyreactivity
3,QVQLVESGGGLVQAGGSLRLSCAASGSIFRINVMGWYRQAPGKERELVAAITRGDSTNYADSVKGRFTISRDNAKNSVYLQMNSLKPEDTAVYYCAAGYYYYLRDHDYWGQGTQVTVSS,low polyreactivity
4,QVQLVESGGGLVQAGGSLRLSCAASGSIFRIYAMGWYRQAPGKERELVAAISFSTGSRTYYADSVKGRFTISRDNAKNTVYLQMNSLKPEDTAVYYCNAESYYDYNYWGQGNQVTVSS,low polyreactivity
5,QVQLVESGGGLVQAGGSLRLSCAASGSIFRIYAMGWYRQAPGKERELVAAISRGSTRTYYADSVKGRFTISRDNAKNTVYLQMNSLKPEDTAVYYCNKAYPPEYDYWGQGTQVTVSS,high polyreactivity
6,QVQLVESGGGLVQAGGSLRLSCAASGSIFRIYRMGWYRQAPGKERELVAAISYSGGNTYYADSVKGRFTISRDNAKNTVYLQMNSLKPEDTAVYYCAAVPYRKHSYPFRLNYWGQGTQVTVSS,high polyreactivity
7,QVQLVESGGGLVQAGGSLRLSCAASGSIFRKYAMGWYRQAPGKEREFVAVITTDGSTNYADSVKRRFTISRDNAKNTVYLQMNSLKPEDTAVYYCNAFRSSIGTDNDFWGQGTQVTVSS,low polyreactivity
8,QVQLVESGGGLVQAGGSLRLSCAASGSIFRKYAMGWYRQAPGKERELVAVITTDGSTNYADSVKGRFTISRDNAKNTVNLQMNSLKPEDSAVYYCNAVRSSIGTDNDFWGQGTLVTVSS,low polyreactivity
9,QVQLVESGGGLVQAGGSLRLSCAASGSIFRKYSMGWYRQAPGKERELVAGITGRGGRTYYADSVKGRFTISRDNAKNTVYLQMNSLKPDDTAVYYCAATVSPSYDYWGQGTQVTVSS,high polyreactivity
10,QVQLVESGGGLVQAGGSLRLSCAASGSIFRLYAMGWYRQAPGKERELVAVISYSGGSTYYADSVKGRFTISRDNAKNTVYLQMNSLNPEDTAVYYCAARRRWYGIRNYYWGQGSQVTVSS,high polyreactivity
11,QVQLVESGGGLVQAGGSLRLSCAASGSIFRNAMGWYRQAPGKERELVATISYRGGSTYYADSVKGRFTISRDNAKNTVYLQMNSLKPEDTAVYYCNADSKLVGYNYWGQGTQVTVSS,low polyreactivity
12,QVQLVESGGGLVQAGGSLRLSCAASGSIFRNYAMGLYRQAPGKERELVAAISSRGGTTHYADSVKGRFTISRDNAKNTVYLQMNSLKPEDTAVYYCAADYYLATNPAPLAAGRGYWGQGTQVTVSS,high polyreactivity
13,QVQLVESGGGLVQAGGSLRLSCAASGSIFRPKAMGWYRQAPGKERELVAAINTSDDSTYYADSVKGRFTISRDNAKNSVYLQMNSLKPEDTAVYYCAAEYYAYPYGDYYDYWGQGTQVSVSS,low polyreactivity
14,QVQLVESGGGLVQAGGSLRLSCAASGSIFRPNAMGWYRQAPGTEREFVASISGRVGSTYYADSVKGRFTISRDNAKNTVYLQMNSLKPEDTAVYYCAADSRGGYKRNYWGQGTQVTVSS,high polyreactivity
15,QVQLVESGGGLVQAGGSLRLSCAASGSIFRPYAMGWSRQAPGKERELVAAISWRSGRTYYADSVKGRFTISRDNAKNTVYLQMNSLKPEDTAVYYCAADLASYAYRYDYWGQGTQVTVSS,high polyreactivity
16,QVQLVESGGGLVQAGGSLRLSCAASGSIFRPYAMGWYRPAPGKERELVAAITSGGRTNYADSVKGRFTISRDNAKNTVYLQMNSLKPEDTAVYYCAKTGSYAKIRPNNDYWGQGTQVTVSS,low polyreactivity
17,QVQLVESGGGLVQAGGSLRLSCAASGSIFRPYAMGWYRQAPGKERELVAAISGSGGTTYYADSVKGRFTISRDNAKNTVYLQMNSLKTEETAVYYCAARNFSAFWLGGYDYWGQGTQVTVSS,low polyreactivity
18,QVQLVESGGGLVQAGGSLRLSCAASGSIFRPYAMGWYRQAPGKERELVATITWSGGSTYYADSVKGRFTISRDNAKNTVYLQMNSLKPEDTAVYYCAADPDLLWEYSDGYYGGDGGYWGQGTQVTVSS,low polyreactivity
19,QVQLVESGGGLVQAGGSLRLSCAASGSIFRPYTMGWYRQAPGKERELVAAITGSGGSTYYADSVKGRFTISRDNAKNTVYLQMNSLKPEDTAVYYCNAGWRVWGYSGSYYWFNYWGQGTQVTVSS,high polyreactivity
20,QVQLVESGGGLVQAGGSLRLSCAASGSIFRQNAMGWYRQAPGKERELVAAISSSGGSTYYADSVKGRFTISRDNAKNTVYLQMNSLKPEDTAVYYCAARLRRTQTYSSGRPGDYWGQGTQVTVSS,high polyreactivity
21,QVQLVESGGGLVQAGGSLRLSCAASGSIFRQYAMGWYRQAPGKERELVAAIRRGTSTYYADSVKGRFTISRDNAKNTVYLQMNSLKPEDTAVYYCAKHQHYPHYQPYWSRYDYWGQGTQVTVSS,low polyreactivity
22,QVQLVESGGGLVQAGGSLRLSCAASGSIFRQYAMGWYRQAPGTERELVAAINYSGGNTYYADSVKGRFTISRDNAKNTVYLQMNSLKPEDTAVYYCAADSVRHYWWAYYYWGQGTQVTVSS,low polyreactivity
